According to the supplement of paper PMC10724198:
± gives the standard deviation of the averaged measurements.

Key:
Saccharomyces cerevisiae [1] = assay: protein stability index of tFT-peptide fusion in wild type (PSI (0-1 scale)); higher = more stable (slower turnover); details: genetic background: wild type
Procedure: (§1)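 MPS profiling in S. cerevisiae of two library types built from selected 12-aa C-degron peptides (IN1, IN2, LN1, LN3, VN2, R1-R5, W1-W3, Atg1 and Rpa12 C-termini): saturation mutagenesis libraries and C-terminal +1 capping libraries (13 aa). Each peptide is fused to the C-terminus of a sfGFP-mCherry timer, after a GGGS linker. Cells are FACS-sorted into 8 mCherry/sfGFP bins and sequenced. PSI runs from 0 (unstable) to 1 (stable), measured once in wild type and in the das1Δ or doa10Δ background.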

Saccharomyces cerevisiae [2] = assay: protein stability index of tFT-peptide fusion in deletion strain of DAS1 (PSI (0-1 scale)); higher = more stable (slower turnover)
Procedure: as §1

Saccharomyces cerevisiae [3] = assay: protein stability index of tFT-peptide fusion (C-terminal peptide) (PSI (0-1 scale)); higher = more stable (slower turnover); details: temperature: 30 C
Procedure: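 MPS profiling in S. cerevisiae of the yeast C-terminome library: the last 12 aa of each annotated ORF are fused to the C-terminus of a sfGFP-mCherry timer, after a GGGS linker. Cells are FACS-sorted into 8 mCherry/sfGFP bins and deep-sequenced. PSI runs from 0 (unstable) to 1 (stable); wild type and das1Δ backgrounds, two technical replicates each.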

[4] = genetic background: das1 deletion
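For protein stability index of tFT-peptide fusion in deletion strain of DAS1 in this document: PSI is a weighted mean of each variant's read distribution over the sorted stability bins, computed only for variants having over 10 reads in total.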
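For protein stability index of tFT-peptide fusion in wild type in this document: PSI derived as read-weighted mean over the 8 sorting bins, only variants exceeding 10 total reads kept, mCherry placed adjacent to the peptide and sfGFP distal.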

Sequence	protein stability index (Saccharomyces cerevisiae [1])	protein stability index (Saccharomyces cerevisiae [2])	protein stability index (Saccharomyces cerevisiae [3]; [4])	protein stability index (Saccharomyces cerevisiae [3]; genetic background: wild type)
ACWRVGLWRGAS	0.445	0.694		
AGWRVGLWRGAS	0.424	0.722		
ALIQPLPVQFLN	0.101	0.649		
ALWRVGLWRGAS	0.464	0.707		
ARGAVGGWRLVG	0.172	0.653		
ARWIVGLWRGAS	0.398	0.684		
ARWMVGLWRGAS	0.449	0.709		
ARWRAGLWRGAS	0.653	0.7		
ARWRIGLWRGAS	0.327	0.671		
ARWRVALWRGAS	0.254	0.671		
ARWRVCLWRGAS	0.397	0.705		
ARWRVGLERGAS	0.661	0.7		
ARWRVGLGRGAS	0.456	0.679		
ARWRVGLKRGAS	0.627	0.663		
ARWRVGLWFGAS	0.626	0.666		
ARWRVGLWRFAS	0.101	0.675		
ARWRVGLWRGAA	0.17	0.675		
ARWRVGLWRGAI	0.529	0.685		
ARWRVGLWRGASH	0.66	0.685		
ARWRVGLWRGASM	0.651	0.639		
ARWRVGLWRGASR	0.663	0.676		
ARWRVGLWRGASW	0.67	0.71		
ARWRVGLWRGPS	0.672	0.69		
ARWRVGLWSGAS	0.67	0.693		
ARWRVGLWTGAS	0.664	0.677		
ARWRVGWWRGAS	0.405	0.701		

Sequence	protein stability index (Saccharomyces cerevisiae [1])	protein stability index (Saccharomyces cerevisiae [2])	protein stability index (Saccharomyces cerevisiae [3]; [4])	protein stability index (Saccharomyces cerevisiae [3]; genetic background: wild type)
ARWRVWLWRGAS	0.341	0.711		
ARWVVGLWRGAS	0.39	0.694		
ARWYVGLWRGAS	0.469	0.696		
CCSCGYKFRTNN	0.226	0.681		
CSLAASFWRVVG	0.125	0.69		
CTACGYKFRTNN	0.259	0.676		
CTDCGYKFRTNN	0.254	0.662		
CTHCGYKFRTNN	0.264	0.709		
CTSCGGKFRTNN	0.61	0.675		
CTSCGYAFRTNN	0.226	0.697		
CTSCGYKFFTNN	0.347	0.727		
CTSCGYKFNTNN	0.42	0.722		
CTSCGYKFRFNN	0.303	0.699		
CTSCGYKFRRNN	0.49	0.703		
CTSCGYKFRTEN	0.45	0.725		
CTSCGYKFRTIN	0.148	0.698		
CTSCGYKFRTKN	0.631	0.702		
CTSCGYKFRTNA	0.266	0.697		
CTSCGYKFRTND	0.7	0.695		
CTSCGYKFRTNN	0.247	0.691		
CTSCGYKFRTNNF	0.711	0.712		
CTSCGYKFRTNNG	0.683	0.69		
CTSCGYKFRTNS	0.465	0.697		
CTSCGYKFRTTN	0.191	0.699		
CTSCGYKFRTYN	0.31	0.696		
CTSCGYKLRTNN	0.471	0.678		

Sequence	protein stability index (Saccharomyces cerevisiae [1])	protein stability index (Saccharomyces cerevisiae [2])	protein stability index (Saccharomyces cerevisiae [3]; [4])	protein stability index (Saccharomyces cerevisiae [3]; genetic background: wild type)
CTSCGYKQRTNN	0.538	0.688		
CTSCGYKRRTNN	0.477	0.683		
YEYHTEEDVMYA [YGR130C C-terminal 12 aa]			0.703 ± 0.013	0.684 ± 0.044
YFNLFTDLSGSK [NEL1 C-terminal 12 aa]			0.73 ± 0.012	0.72 ± 0.043
YGLLKFHSVFES [YMR209C C-terminal 12 aa]			0.707 ± 0.0069	0.668 ± 0.054
YGNWSKTVADLN [BAT1 C-terminal 12 aa]			0.692 ± 0.022	0.687 ± 0.022
YGRGETPKHAIE [DPH1 C-terminal 12 aa]			0.692 ± 0.0084	0.713 ± 0.062
YKTEYPEWALRR [PUS9 C-terminal 12 aa]			0.723 ± 0.01	0.717 ± 0.053
YLIKNPGYPIVF [OST6 C-terminal 12 aa]			0.621 ± 0.0095	0.6361 ± 0.0047
YLISEKIIRKHL [MET14 C-terminal 12 aa]			0.685 ± 0.017	0.602 ± 0.026
YLPRSKWFGILV [ALG14 C-terminal 12 aa]			0.359 ± 0.02	0.165 ± 0.0058
YNPPDYEPEAKK [PHM7 C-terminal 12 aa]			0.6998 ± 0.0052	0.639 ± 0.008
YPKFIKGHEEYF [BSC6 C-terminal 12 aa]			0.702 ± 0.035	0.715 ± 0.0089
YRDDPNQKNYKD [MSS4 C-terminal 12 aa]			0.6905 ± 0.0037	0.749 ± 0.081
YSINPDEIELDI [SYF1 C-terminal 12 aa]			0.707 ± 0.025	0.698 ± 0.029
YSLLIHLSKKKS [YNR005C C-terminal 12 aa]			0.668 ± 0.025	0.6119 ± 0.0036
YSSDSSTLHSKV [FIG1 C-terminal 12 aa]			0.7 ± 0.021	0.6859 ± 0.0017
YSSRRWRLDTHD [RTC4 C-terminal 12 aa]			0.763 ± 0.034	0.752 ± 0.058
YSWMQPESGWNP [YER188W C-terminal 12 aa]			0.738 ± 0.011	0.722 ± 0.032
YSYSSPKYTFPC [YKL147C C-terminal 12 aa]			0.6967 ± 0.0022	0.669 ± 0.063
YTTVLSSQSSKL [PEX8 C-terminal 12 aa]			0.783 ± 0.013	0.855 ± 0.091
YVIHLDQIDRDL [YLR269C C-terminal 12 aa]			0.714 ± 0.0093	0.699 ± 0.028
YVTYSGENTFGR [ATG8 C-terminal 12 aa]			0.703 ± 0.025	0.691 ± 0.021
YVVKGWCDSRFL [GIS3 C-terminal 12 aa]			0.72 ± 0.01	0.701 ± 0.016
YYYKNSYWPSHI [VPS36 C-terminal 12 aa]			0.6935 ± 0.0058	0.701 ± 0.027
